US20180273604A1 (ALBERT EINSTEIN COLLEGE OF MEDICINE, published 2018)
Where a chain is given by its changes, count along the chain named.

T1: mouse TNFR-1B (mouse, UniProt P25119 23-258)
T1 construct: also called mouse ortholog of TNFR-1B
T1 sequence (looked up): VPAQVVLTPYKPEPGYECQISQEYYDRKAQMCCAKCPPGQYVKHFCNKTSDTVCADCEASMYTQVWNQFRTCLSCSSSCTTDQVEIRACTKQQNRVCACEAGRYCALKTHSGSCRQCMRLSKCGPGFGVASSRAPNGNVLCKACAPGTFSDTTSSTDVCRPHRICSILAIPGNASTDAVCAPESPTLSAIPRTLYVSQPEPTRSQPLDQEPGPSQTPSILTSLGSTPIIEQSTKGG

T2: TNFR-1B mutant D58A (human, UniProt P20333 23-461)
T2 construct: Point mutant expressed as mCherry fusion in HEK 293 cells; not shown: C-terminal mCherry fusion
T2 sequence: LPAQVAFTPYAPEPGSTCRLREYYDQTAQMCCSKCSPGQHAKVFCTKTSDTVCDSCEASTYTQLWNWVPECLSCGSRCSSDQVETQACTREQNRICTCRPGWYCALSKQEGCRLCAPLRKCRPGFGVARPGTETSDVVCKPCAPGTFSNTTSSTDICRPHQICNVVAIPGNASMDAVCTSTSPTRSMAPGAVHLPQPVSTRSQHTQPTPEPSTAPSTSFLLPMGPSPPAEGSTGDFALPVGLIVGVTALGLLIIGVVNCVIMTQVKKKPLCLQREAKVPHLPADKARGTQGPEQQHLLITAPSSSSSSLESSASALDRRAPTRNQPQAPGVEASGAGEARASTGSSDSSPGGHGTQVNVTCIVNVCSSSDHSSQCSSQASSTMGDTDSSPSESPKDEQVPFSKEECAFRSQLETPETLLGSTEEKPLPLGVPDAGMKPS

T3: tumor necrosis factor receptor 1B (TNFR-1B), human, expressed on HEK 293 cells (human, UniProt P20333 23-461)
T3 construct: also called TNFR-1B-mCHERRY; Human TNFR-1B; not shown: C-terminal fluorescent protein (mCherry as query, GFP as library or panel member)
T3 sequence: T2 sequence with A58D

T4: NGFR, human, expressed on cells (human, UniProt P08138 29-427)
T4 construct: whole, on cells
T4 sequence (looked up): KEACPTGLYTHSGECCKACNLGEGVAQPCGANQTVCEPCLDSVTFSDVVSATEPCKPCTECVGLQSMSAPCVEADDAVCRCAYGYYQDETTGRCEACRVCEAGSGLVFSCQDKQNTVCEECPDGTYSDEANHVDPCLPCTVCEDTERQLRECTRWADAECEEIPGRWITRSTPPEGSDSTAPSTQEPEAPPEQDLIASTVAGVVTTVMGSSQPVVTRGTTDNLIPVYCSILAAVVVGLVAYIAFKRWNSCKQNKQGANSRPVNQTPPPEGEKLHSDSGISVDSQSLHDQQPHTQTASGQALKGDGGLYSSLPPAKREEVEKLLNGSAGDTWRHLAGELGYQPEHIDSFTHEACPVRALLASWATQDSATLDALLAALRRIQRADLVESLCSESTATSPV

B1: mouse ICOS-L (ligand, UniProt Q9JHJ8 47-277, looked up)
chain: ETEVGAMVGSNVVLSCIDPHRRHFNLSGLYVYWQIENPEVSVTYYLPYKSPGINVDSSYKNRGHLSLDSMKQGNFSLYLKNVTPQDTQEFTCRVFMNTATELVKILEEVVRLRVAANFSTPVISTSDSSNPGQERTYTCMSKNGYPEPNLYWINTTDNSLIDTALQNNTVYLNKLGLYDVISTLRLPWTSRGDVLCCVENVALHQNITSISQAESFTGNNTKNPQETHNNE
notes: also called mouse ortholog of ICOS-L
B2: ICOS-L, human, expressed on HEK 293 cells (ligand, UniProt O75144 19-302, looked up)
chain: DTQEKEVRAMVGSDVELSCACPEGSRFDLNDVYVYWQTSESKTVVTYHIPQNSSLENVDSRYRNRALMSPAGMLRGDFSLRLFNVTPQDEQKFHCLVLSQSLGFQEVLSVEVTLHVAANFSVPVVSAPHSPSQDELTFTCTSINGYPRPNVYWINKTDNSLLDQALQNDTVFLNMRGLYDVVSVLRIARTPSVNIGCCIENVLLQQNLTVGSQTGNDIGERDKITENPVSTGEKNAATWSILAVLCLLVVVAVAIGWVCRDRCLQHSYAGAWAVSPETELTGHV
notes: whole, on cells; Expressed as GFP or mCherry fusion; Library form: ectodomain on the mouse PD-L1 transmembrane segment with GFP; also called Human ICOS-L
B3: TNFR-1B mutant T48A (receptor)
chain: T2 sequence with T48A, A58D
notes: Point mutant expressed as mCherry fusion in HEK 293 cells; not shown: C-terminal mCherry fusion
B4: MadCAM-1, human, expressed on HEK 293 cells (ligand, UniProt Q13477 19-382, looked up)
chain: QSLQVKPLQVEPPEPVVAVALGASRQLTCRLACADRGASVQWRGLDTSLGAVQSDTGRSVLTVRNASLSAAGTRVCVGSCGGRTFQHTVQLLVYAFPDQLTVSPAALVPGDPEVACTAHKVTPVDPNALSFSLLVGGQELEGAQALGPEVQEEEEEPQGDEDVLFRVTERWRLPPLGTPVPPALYCQATMRLPGLELSHRQAIPVLHSPTSPEPPDTTSPESPDTTSPESPDTTSQEPPDTTSPEPPDKTSPEPAPQQGSTHTPRSPGSTRTRRPEISQAGPTQGEVIPTGSSKPAGDQLPAALWTSSAVLGLLLLALPTYHLWKRCRHLAEDDTHPPASLRLLPQVSAWAGLRGTGQVGISPS
notes: whole, on cells; GFP or mCherry fusion; library form has the ectodomain on the mouse PD-L1 transmembrane segment
B5: TNFR-1B mutant N171D (receptor)
chain: T2 sequence with A58D, N171D
notes: as for B3
B6: ICOS-L Fc-fusion protein (soluble, purified) (Fc fusion, human, UniProt O75144 19-256, looked up, not shown: a dimerising Fc or GST)
chain: DTQEKEVRAMVGSDVELSCACPEGSRFDLNDVYVYWQTSESKTVVTYHIPQNSSLENVDSRYRNRALMSPAGMLRGDFSLRLFNVTPQDEQKFHCLVLSQSLGFQEVLSVEVTLHVAANFSVPVVSAPHSPSQDELTFTCTSINGYPRPNVYWINKTDNSLLDQALQNDTVFLNMRGLYDVVSVLRIARTPSVNIGCCIENVLLQQNLTVGSQTGNDIGERDKITENPVSTGEKNAAT
notes: Expressed in HEK 293 cells, purified by Ni2+-NTA and gel filtration; Used soluble or on protein A microbeads; also called ICOS-L Fc (IgG2a); ICOS-L mIgG2a
B7: TNFR-1B mutant K42D (receptor)
chain: T2 sequence with K42D, A58D
notes: as for B3
B8: B7-1, human, expressed on cells (ligand, UniProt P33681 35-288, looked up)
chain: VIHVTKEVKEVATLSCGHNVSVEELAQTRIYWQKEKKMVLTMMSGDMNIWPEYKNRTIFDITNNLSIVILALRPSDEGTYECVVLKYEKDAFKREHLAEVTLSVKADFPTPSISDFEIPTSNIRRIICSTSGGFPEPHLSWLENGEELNAINTTVSQDPETELYAVSSKLDFNMTTNHSFMCLIKYGHLRVNQTFNWNTTKQEHFPDNLLPSWAITLISVNGIFVICCLTYCFAPRCRERRRNERLRRESVRPV
notes: whole, on cells

Key:
mouse TNFR-1B = biological target: T1, mouse TNFR-1B; experiment: mouse constructs tested; assay not described (data not shown)
TNFR-1B mutant D58A = biological target: T2, TNFR-1B mutant D58A; experiment: cell-cell FACS, mutant-mCherry cells vs ligand-GFP cells
[1] = biological target: T3, tumor necrosis factor receptor 1B …; experiment: listed as newly discovered in this disclosure (cell-cell FACS screens)
[2] = biological target: B2; experiment: cell-cell FACS, mutant-mCherry cells vs ligand-GFP cells
[3] = biological target: T5, TNFα, cell-surface displayed on HEK 293 cells (Homo sapiens (Human), UniProt P01375 1-233, Expressed as a GFP fusion on HEK 293 cells. GFP is left out of the chain. The native protein is a homotrimer.); experiment: as above
T5 construct: also called TNF-alpha; cell surface expressed TNFα

[4] = biological target: T3, tumor necrosis factor receptor 1B …; experiment: soluble ICOS-L Fc on transfected cells, flow cytometry
[5] = biological target: T4, NGFR, human, expressed on cells; experiment: cell-cell FACS screen, NGFR query cells vs GFP library cells

T5 sequence (P01375 whole entry, form in doubt, the tested form may be a part): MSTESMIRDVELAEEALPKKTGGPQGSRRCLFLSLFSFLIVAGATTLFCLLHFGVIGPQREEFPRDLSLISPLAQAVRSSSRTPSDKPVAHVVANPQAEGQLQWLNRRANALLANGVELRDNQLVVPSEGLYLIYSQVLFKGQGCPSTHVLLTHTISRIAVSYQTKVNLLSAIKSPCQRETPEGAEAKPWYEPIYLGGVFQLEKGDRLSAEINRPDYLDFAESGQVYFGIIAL

Binder: B1
- binding result (mouse TNFR-1B): no binding

Binder: B2
- binding result (TNFR-1B mutant D58A): binds
- binding result [1]: binds

Binder: B3
- binding as percent of wild-type [2]: ~50 % of wild-type
- binding as percent of wild-type [3]: ~50 % of wild-type

Binder: B4
- binding result (TNFR-1B mutant D58A): binds
- binding result [1]: binds

Binder: B5
- binding as percent of wild-type [2]: ~50 % of wild-type
- binding as percent of wild-type [3]: ~50 % of wild-type

Binder: B6
- binding result [4]: binds

Binder: B7
- binding as percent of wild-type [2]: ~50 % of wild-type
- binding as percent of wild-type [3]: ~50 % of wild-type

Binder: B8
- binding result [5]: binds
